The values that follow come from patent US20100092998A1 (PENN STATE RESEARCH FOUNDATION, published 2010).

This test deals with T1, human ubiquitin conjugating enzyme E2 protein Ubc-7 (human, UniProt P60604 1-165, limits assumed).
T1 construct: also called Homo sapiens ubiquitin-conjugating enzyme E2G 2; UCE E2 Ubc7
T1 sequence: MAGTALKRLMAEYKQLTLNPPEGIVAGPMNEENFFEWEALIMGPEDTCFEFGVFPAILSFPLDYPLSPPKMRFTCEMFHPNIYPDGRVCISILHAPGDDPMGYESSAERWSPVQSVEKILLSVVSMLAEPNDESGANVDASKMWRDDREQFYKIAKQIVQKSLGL
The test is described as follows: crystal structure of the gp78-Ubc7 fusion protein (SEQ ID No. 12) solved to 2.2 Å.

B1: gp78 E3 RING motif with flanking sequence (amino acid residues 322 to 393 of the full-length gp78 E3 protein) (other)
chain: MEARFAVATPEELAVNNDDCAICWDSMQAARKLPCGHLFHNSCLRSWLEQDTSCPTCRMSLNIADNNRVREE
notes: also called gp78 RING; gp78RING motif
Regarding B1, the binding result is listed as “binds”.
